To fix the notation:
B1: His-BAP1-ULD ∆K637-C638 (sub of N) (domain or fragment, human, UniProt Q92560 601-729, looked up)
chain: KEVVEATDSREKTGMVRPGEPLSGEKYSPKELLALLNVEAEIANYEACLKEEVEKRKKFKIDDQRRTHNYDEFICTFISMLAQEGMLANLVEQNISVRRRQGVSIGRLHKQRKPDRRKRSRPYKAKRQ
B2: Flag-ASXL2 (261–649 aa) (baculovirus) (domain or fragment, human, UniProt Q76L83 261-649, looked up)
chain: MKRTKCADIDVETPDSILVNTNLRALINKHTFSVLPGDCQQRLLLLLPEVDRQVGPDGLMKLNGSALNNEFFTSAAQGWKERLSEGEFTPEMQVRIRQEIEKEKKVEPWKEQFFESYYGQSSGLSLEDSKKLTASPSDPKVKKTPAEQPKSMPVSEASLIRIVPVVSQSECKEEALQMSSPGRKEECESQGEVQPNFSTSSEPLLSSALNTHELSSILPIKCPKDEDLLEQKPVTSAEQESEKNHLTTASNYNKSESQESLVTSPSKPKSPGVEKPIVKPTAGAGPQETNMKEPLATLVDQSPESLKRKSSLTQEEAPVSWEKRPRVTENRQHQQPFQVSPQPFLNRGDRIQVRKVPPLKIPVSRISPMPFHPSQVSPRARFPVSITSP
B3: His-BAP1-ULD (601–729) WT (domain or fragment, human, UniProt Q92560 601-729, looked up)
chain: KEVVEATDSREKTGMVRPGEPLSGEKYSPKELLALLKCVEAEIANYEACLKEEVEKRKKFKIDDQRRTHNYDEFICTFISMLAQEGMLANLVEQNISVRRRQGVSIGRLHKQRKPDRRKRSRPYKAKRQ
B4: His-BAP1-ULD L650P (domain or fragment, human, UniProt Q92560 601-729, looked up)
chain: B3 chain with L50P
B5: His-BAP1-ULD F660P (domain or fragment, human, UniProt Q92560 601-729, looked up)
chain: B3 chain with F60P
B6: His-ASXL2-AB (261–381 aa) (domain or fragment, human, UniProt Q76L83 261-381, looked up)
chain: MKRTKCADIDVETPDSILVNTNLRALINKHTFSVLPGDCQQRLLLLLPEVDRQVGPDGLMKLNGSALNNEFFTSAAQGWKERLSEGEFTPEMQVRIRQEIEKEKKVEPWKEQFFESYYGQS

Assay [1] concerns the target T1, GST-BAP1-UCH (1–250 aa) (human, UniProt Q92560 1-250).
T1 sequence (looked up): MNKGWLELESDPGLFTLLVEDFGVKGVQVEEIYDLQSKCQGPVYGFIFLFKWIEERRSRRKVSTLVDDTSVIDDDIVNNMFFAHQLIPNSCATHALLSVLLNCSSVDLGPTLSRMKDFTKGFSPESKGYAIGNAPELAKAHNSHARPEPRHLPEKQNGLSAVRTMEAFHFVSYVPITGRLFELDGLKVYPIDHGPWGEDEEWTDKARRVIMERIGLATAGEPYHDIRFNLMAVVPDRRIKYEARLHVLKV
Kind of assay: pull-down.

The target in assay [2] is T2, GST-BAP1 (full length) (human, UniProt Q92560 1-729).
T2 sequence (looked up): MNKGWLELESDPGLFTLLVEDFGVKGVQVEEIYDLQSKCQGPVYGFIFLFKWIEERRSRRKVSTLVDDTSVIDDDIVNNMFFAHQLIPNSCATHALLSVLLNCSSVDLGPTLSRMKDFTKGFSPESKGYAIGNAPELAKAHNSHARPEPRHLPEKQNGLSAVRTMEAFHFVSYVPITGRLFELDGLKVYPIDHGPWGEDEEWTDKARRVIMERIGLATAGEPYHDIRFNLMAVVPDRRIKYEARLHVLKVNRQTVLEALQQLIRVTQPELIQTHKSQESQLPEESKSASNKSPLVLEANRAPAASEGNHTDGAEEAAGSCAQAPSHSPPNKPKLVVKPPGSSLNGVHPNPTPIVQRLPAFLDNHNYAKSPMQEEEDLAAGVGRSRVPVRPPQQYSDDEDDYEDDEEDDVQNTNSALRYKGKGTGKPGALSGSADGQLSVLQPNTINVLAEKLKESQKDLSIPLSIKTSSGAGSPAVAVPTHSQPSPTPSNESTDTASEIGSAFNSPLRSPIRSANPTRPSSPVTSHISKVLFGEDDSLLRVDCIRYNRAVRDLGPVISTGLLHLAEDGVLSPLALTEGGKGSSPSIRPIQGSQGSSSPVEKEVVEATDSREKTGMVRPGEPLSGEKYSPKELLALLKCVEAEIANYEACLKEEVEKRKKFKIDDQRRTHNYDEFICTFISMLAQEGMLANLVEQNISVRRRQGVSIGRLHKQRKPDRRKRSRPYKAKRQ
The assay can be described thus: pull-down.

The target of assay [3] is T3, His-BAP1-FL ∆E283-S285 (baculovirus) (human, UniProt Q92560 1-729, ∆E283-S285).
T3 sequence (looked up): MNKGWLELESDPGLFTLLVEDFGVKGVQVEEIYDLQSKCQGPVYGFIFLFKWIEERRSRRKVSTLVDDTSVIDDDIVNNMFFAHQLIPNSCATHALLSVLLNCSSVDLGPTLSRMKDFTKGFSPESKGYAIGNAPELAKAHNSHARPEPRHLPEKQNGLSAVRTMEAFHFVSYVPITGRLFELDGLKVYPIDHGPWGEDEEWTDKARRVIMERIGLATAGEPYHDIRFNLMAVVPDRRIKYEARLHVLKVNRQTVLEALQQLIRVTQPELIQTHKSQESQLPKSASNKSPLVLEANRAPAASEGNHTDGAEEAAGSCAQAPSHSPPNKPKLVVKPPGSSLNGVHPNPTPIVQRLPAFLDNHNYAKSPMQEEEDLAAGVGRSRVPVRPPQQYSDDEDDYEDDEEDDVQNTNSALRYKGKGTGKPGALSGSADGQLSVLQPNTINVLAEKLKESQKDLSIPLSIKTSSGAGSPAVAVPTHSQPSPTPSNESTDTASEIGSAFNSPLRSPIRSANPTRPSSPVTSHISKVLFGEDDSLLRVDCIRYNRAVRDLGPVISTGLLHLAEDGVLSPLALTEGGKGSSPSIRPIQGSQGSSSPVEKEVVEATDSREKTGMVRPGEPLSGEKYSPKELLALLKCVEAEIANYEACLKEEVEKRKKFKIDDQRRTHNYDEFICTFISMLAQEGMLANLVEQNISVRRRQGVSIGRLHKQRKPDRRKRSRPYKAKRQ
Kind of assay: co-IP.

In assay [4] the target is T4, GST-BAP1-ULD (human, UniProt Q92560 601-729).
T4 sequence (looked up): B3 chain
The assay can be described thus: pull-down.

The target in assay [5] is B3. Kind of assay: pull-down.

These results are taken from article PMC6167014 (Cancer research, 2017).

Residue numbers refer to the chain shown, from its start. Names and notes keep the numbering of the source.

Turning to B1, the binding result in assay [1] is on record as “binds”.

On to B2, for which the binding result in assay [2] and in assay [3] was “binds” throughout.

Regarding B3, the binding result in assay [1] is given as “binds”.

Take B4: the binding result in assay [1] was “binds”.

As to B5, the binding result in assay [1] is on record as “binds”.

Turning to B6, the binding result in assay [4], in assay [2] and in assay [5] was “binds” throughout.
